The values below come from patent publication US20250002570A1 (Innovent, published 2025).

Numbering of substitutions follows the chain as printed. Where only a bound is given, the exact number is not on record here.

The chains are these.
T1: human VEGF C (human, UniProt P49767 103-227, limits assumed)
T1 construct: also called hVEGFC; hVEGF C
T1 sequence (looked up): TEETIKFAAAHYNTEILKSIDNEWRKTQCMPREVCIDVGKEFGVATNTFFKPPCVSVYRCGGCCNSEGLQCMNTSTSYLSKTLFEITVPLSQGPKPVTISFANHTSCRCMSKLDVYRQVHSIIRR

B1: LA49G9 anti-VEGF C VHH antibody (VHH)
VHH: QLQLVESGGGLVQPGGSLRLSCAASGSMFSMYAMGWYRQAPGKQRELVAATTSGGSTLYADSVKGRFTISRDNAENTVYLQMNSLKPEDTAVYYCYTYWRGSDPENYWGRGTQVTVSS
notes: The prokaryotic product was purified on Ni Sepharose
B2: LA63G12 anti-VEGF C VHH antibody (VHH)
VHH: B1 VHH with M28S, M31P, E75K, T97M, Y98H, R110Q
notes: as for B1
B3: LA63G12.1 humanized anti-VEGF C VHH-Fc antibody (Fc fusion)
chain: EVQLVESGGGLVQPGGSLRLSCAASGSSFSPYAMGWYRQAPGKQRELVSATTSGGSTLYADSVKGRFTISRDNSKNTVYLQMNSLRAEDTAVYYCYMHWRGSDPENYWGQGTQVTVSS
notes: not shown: Fc part (and any hinge or linker) of the dimerized VHH-Fc antibody
B4: LA49G9.2 humanized anti-VEGF C VHH-Fc antibody (Fc fusion)
chain: B3 chain with S28M, P31M, S49A, V78L, M97T, H98Y
notes: as for B3
B5: am63G12-14B11 affinity-matured humanized anti-VEGF C VHH antibody (VHH)
VHH: B3 chain with T52S, S53E, S56F
notes: also called am63G12.1-14B11
B6: am63G12-5G8-18B9 affinity-matured humanized anti-VEGF C VHH antibody (VHH)
VHH: B3 chain with T52S, S56F, M97T, H98Y, W99Y, G101E, S102Y, N106M
notes: also called Am63G2-5G8-18B9; am63G12.1-5G8-18B9

One experiment deals with T1, human VEGF C. The experiment in a line: BLI (ForteBio), bivalent binding, 30 C; * beyond the ForteBio detection limit; bivalent binding, ForteBio; kdis at the detection limit. The method, then: (§1) The equilibrium dissociation constant (KD) for binding of the antibodies of the present invention to human VEGF C was determined by bio-layer interferometry (ForteBio). A ForteBio affinity assay of prior art was performed (Estep. P., et al., “High throughput solution Based measurement of antibody-antigen affinity and epitope binning”, MAbs, 2013.5(2): 270-8).
(§2) 100 μL of SD buffer, antibodies, and antigens (human VEGF C, Beijing Sino Biological) were added to a 96-well black polystyrene half-area microplate (Greiner, 675076). The sensors were arranged according to the positions of the samples. The instrument settings were as follows: the operation procedures were Baseline, Loading −1 nm, Baseline, Association, and Dissociation; the run time of each procedure was dependent on the rates of association and dissociation; the rotation speed was 400 rpm, and the temperature was 30° C. The KD values were analyzed by ForteBio analysis software.
B1 yielded a koff of no more than 0.0002 s⁻¹.

For a further experiment, the target named is T1, human VEGF C. The experiment in a line: BLI (ForteBio), bivalent binding, 30 C; * beyond the ForteBio detection limit. The procedure:
as §1, §2
(In general: In BLI a coated tip is dipped into the sample, and binding shifts an interference pattern.)
B2 gave an off-rate constant (koff) of no more than 0.0002 s⁻¹.

Molecule B3 gave a koff of no more than 0.0002 s⁻¹.

For B4, the koff was no more than 0.0002 s⁻¹.

A further experiment has as its target T1, human VEGF C. As to the kind of experiment: BLI (ForteBio), monovalent binding, 30 C. The procedure: as §1, §2
B2: the Kd stood at 16.4 nM, the koff was determined as 0.000761 s⁻¹ and the kon worked out at 46500 M⁻¹ s⁻¹.

For the molecule B5, the Kd is 6.21 nM, the koff amounted to 0.000343 s⁻¹ and the kon turned out to be 55300 M⁻¹ s⁻¹.

For the molecule B1, the Kd was 10 nM, the koff came out at 0.000544 s⁻¹ and the kon was found to be 54300 M⁻¹ s⁻¹.

Consider B6, for which the Kd came to 5.7 nM, the koff was 0.00036 s⁻¹ and the kon came out at 63100 M⁻¹ s⁻¹.

A further experiment deals with T1, human VEGF C. As to the kind of experiment: ELISA blocking: VEGFC-biotin captured on streptavidin plate; blocked receptor VEGFR2-Fc (0.2 ug/mL), detected with anti-human Fc-HRP, OD450. The method, then: The blocking effects of the antibodies of the present invention on the binding of hVEGFC to a receptor KDR were determined.
(§3) SA (streptavidin) was diluted to 1 μg/mL, and 100 μL/well of SA was plated in a microplate at 4° C. overnight. The plate was washed 3 times with PBST and blocked with 3% BSA for 1.5 h. The plate was washed 3 times with PBST, 50 ng/ml of VEGFC-biotin (biotin-labeled human VEGF C) was added, and the plate was incubated for 1.5 h. 50 μL of antibody was incubated with VEGFR2-Fc (with a final concentration of 0.2 μg/mL, Beijing Sino Biological) or VEGFR3-Fc (with a final concentration of 0.2 μg/mL, Beijing Sino Biological) for 20 min in advance, and the mixture was added to the plate. The plate was washed 3 times with PBST, an anti-human FcHRP antibody (diluted in a ratio of 1:10000, BETHYL) was added, and then the plate was incubated for 30 min. The plate was washed 6 times with PBST, the color development was performed with TMB (SOLARBIO) for 5 min, and OD450 nm was read after stopping.
In general terms: An ELISA detects its analyte on a solid surface through an enzyme-linked reagent.
OPT-302-His showed a half-inhibitory concentration (IC50) of 0.0118 µg/mL.

Take B2: the IC50 amounted to 0.159 µg/mL.

Molecule B1 showed an IC50 of 0.236 µg/mL.

The target in the next experiment is T1, human VEGF C. The experiment in a line: BLI (ForteBio), bivalent binding, 30 C. The procedure: as §1, §2
With B2, the Kd came out at 0.656 nM and the kon stood at 305000 M⁻¹ s⁻¹.

Regarding B3, the Kd was no more than 0.622 nM and the kon was found to be 322000 M⁻¹ s⁻¹.

For the molecule B4, the Kd is no more than 0.645 nM and the kon was determined as 310000 M⁻¹ s⁻¹.

The molecule B1 yielded a Kd of 0.613 nM and a kon of 326000 M⁻¹ s⁻¹.

In a further experiment the target is T1, human VEGF C. As to the kind of experiment: ELISA blocking: VEGFC-biotin captured on streptavidin plate; blocked receptor VEGFR3-Fc (0.2 ug/mL), detected with anti-human Fc-HRP, OD450. The method, then:
as §3
Molecule B2 displayed an IC50 of 0.342 µg/mL.

In the case of B3, the IC50 came to 0.492 µg/mL.

B5 displayed an IC50 of 0.0191 µg/mL.

The molecule B1 showed an IC50 of 0.151 µg/mL.

The target in the next experiment is T1, human VEGF C. The experiment is described as above. This is another data set of the same source. The method, then: as §3
In turn, B2 returned an IC50 of 0.125 µg/mL.

On to B3, for which the IC50 is 0.182 µg/mL.

On to B1, for which it took 0.0815 µg/mL to reach half-maximal inhibition (IC50).

As to B6, half-maximal inhibition (IC50) required 0.0215 µg/mL.

For another experiment, the target named is T1, human VEGF C. The description is as above. The source holds these as a separate data set. The procedure: as §3
Molecule B2 showed an IC50 of 0.371 µg/mL.

B1 displayed an IC50 of 0.352 µg/mL.

Broadly, the koff is the rate constant with which the complex falls apart. Lower therefore signals a long-lived complex. A word on the kon: it is the rate constant with which the complex forms. Read a high kon as faster complex formation. For orientation: IC50 means the concentration needed to halve the response being measured. A higher IC50 goes with a need for much substance.
